Paper PMC10333293, “Membrane recruitment of the polarity protein Scribble by the cell adhesion receptor TMIGD1” (Communications Biology, 2023)
Blank lines part the entries; values can stand above or below the molecule they belong to.

Columns and labels:
[1] = molecular target: APC PBM (Homo sapiens) (UniProt P25054); details: cited from earlier work
[2] = molecular target: T1, human Scribble PDZ domain 3 (hScrib/PDZ3, AA 1005-1094) (human, UniProt Q14160 1005-1094); test: ITC; purified PDZ domain at 75 uM against the 8-mer peptide at 900-1100 uM, 20 injections, 25 °C, 25 mM Tris-HCl pH 8.0, 150 mM NaCl, 5 mM TCEP, one-site binding model; details: both partners purified
T1 construct: human Scribble (Scrib), PDZ domain 3, residues 1005-1094; source: E. coli BL21 (DE3) CodonPlus or pLysS, purified, tag cleaved
T1 sequence (looked up): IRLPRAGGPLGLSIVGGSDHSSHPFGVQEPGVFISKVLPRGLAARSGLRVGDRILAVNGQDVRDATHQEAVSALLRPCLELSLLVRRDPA

[3] = molecular target: T2, human Scribble PDZ domain 1 (hScrib/PDZ1, AA 728-815) (human, UniProt Q14160 728-815); test: as above; details: both partners purified
T2 construct: human Scribble (Scrib), PDZ domain 1, residues 728-815; source: E. coli BL21 (DE3) CodonPlus or pLysS, purified, tag cleaved

[4] = molecular target: T3, hScrib/PDZ3 (AA 1005-1094) (human, UniProt Q14160 1005-1094); test: ITC; peptide (900-1100 µM) titrated into PDZ domain (75 µM); 25 mM Tris-HCl pH 8.0, 150 mM NaCl, 5 mM TCEP; 25 °C; 20 injections; one-site binding model; details: both partners purified
T3 construct: Scribble, human, PDZ3 domain, AA 1005-1094; In pGEX-6P-3 or pGIL-MBP; source: E. coli BL21 (DE3) CodonPlus or pLysS, purified
T3 sequence (looked up): T1 sequence (looked up)

[5] = molecular target: T4, hScrib/PDZ1 (AA 728-815) (human, UniProt Q14160 728-815); test: as above; details: both partners purified
T4 construct: Scribble, human, PDZ1 domain, AA 728-815; In pGEX-6P-3 or pGIL-MBP; also called PDZ domain 1 of Scrib; source: E. coli BL21 (DE3) CodonPlus or pLysS, purified
T4 sequence (Q14160 728-815): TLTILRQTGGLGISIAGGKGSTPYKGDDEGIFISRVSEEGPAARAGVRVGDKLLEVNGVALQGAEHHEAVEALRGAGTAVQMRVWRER

Chain of APC PBM (Homo sapiens) (P25054 whole entry, looked up, the tested form may be a part): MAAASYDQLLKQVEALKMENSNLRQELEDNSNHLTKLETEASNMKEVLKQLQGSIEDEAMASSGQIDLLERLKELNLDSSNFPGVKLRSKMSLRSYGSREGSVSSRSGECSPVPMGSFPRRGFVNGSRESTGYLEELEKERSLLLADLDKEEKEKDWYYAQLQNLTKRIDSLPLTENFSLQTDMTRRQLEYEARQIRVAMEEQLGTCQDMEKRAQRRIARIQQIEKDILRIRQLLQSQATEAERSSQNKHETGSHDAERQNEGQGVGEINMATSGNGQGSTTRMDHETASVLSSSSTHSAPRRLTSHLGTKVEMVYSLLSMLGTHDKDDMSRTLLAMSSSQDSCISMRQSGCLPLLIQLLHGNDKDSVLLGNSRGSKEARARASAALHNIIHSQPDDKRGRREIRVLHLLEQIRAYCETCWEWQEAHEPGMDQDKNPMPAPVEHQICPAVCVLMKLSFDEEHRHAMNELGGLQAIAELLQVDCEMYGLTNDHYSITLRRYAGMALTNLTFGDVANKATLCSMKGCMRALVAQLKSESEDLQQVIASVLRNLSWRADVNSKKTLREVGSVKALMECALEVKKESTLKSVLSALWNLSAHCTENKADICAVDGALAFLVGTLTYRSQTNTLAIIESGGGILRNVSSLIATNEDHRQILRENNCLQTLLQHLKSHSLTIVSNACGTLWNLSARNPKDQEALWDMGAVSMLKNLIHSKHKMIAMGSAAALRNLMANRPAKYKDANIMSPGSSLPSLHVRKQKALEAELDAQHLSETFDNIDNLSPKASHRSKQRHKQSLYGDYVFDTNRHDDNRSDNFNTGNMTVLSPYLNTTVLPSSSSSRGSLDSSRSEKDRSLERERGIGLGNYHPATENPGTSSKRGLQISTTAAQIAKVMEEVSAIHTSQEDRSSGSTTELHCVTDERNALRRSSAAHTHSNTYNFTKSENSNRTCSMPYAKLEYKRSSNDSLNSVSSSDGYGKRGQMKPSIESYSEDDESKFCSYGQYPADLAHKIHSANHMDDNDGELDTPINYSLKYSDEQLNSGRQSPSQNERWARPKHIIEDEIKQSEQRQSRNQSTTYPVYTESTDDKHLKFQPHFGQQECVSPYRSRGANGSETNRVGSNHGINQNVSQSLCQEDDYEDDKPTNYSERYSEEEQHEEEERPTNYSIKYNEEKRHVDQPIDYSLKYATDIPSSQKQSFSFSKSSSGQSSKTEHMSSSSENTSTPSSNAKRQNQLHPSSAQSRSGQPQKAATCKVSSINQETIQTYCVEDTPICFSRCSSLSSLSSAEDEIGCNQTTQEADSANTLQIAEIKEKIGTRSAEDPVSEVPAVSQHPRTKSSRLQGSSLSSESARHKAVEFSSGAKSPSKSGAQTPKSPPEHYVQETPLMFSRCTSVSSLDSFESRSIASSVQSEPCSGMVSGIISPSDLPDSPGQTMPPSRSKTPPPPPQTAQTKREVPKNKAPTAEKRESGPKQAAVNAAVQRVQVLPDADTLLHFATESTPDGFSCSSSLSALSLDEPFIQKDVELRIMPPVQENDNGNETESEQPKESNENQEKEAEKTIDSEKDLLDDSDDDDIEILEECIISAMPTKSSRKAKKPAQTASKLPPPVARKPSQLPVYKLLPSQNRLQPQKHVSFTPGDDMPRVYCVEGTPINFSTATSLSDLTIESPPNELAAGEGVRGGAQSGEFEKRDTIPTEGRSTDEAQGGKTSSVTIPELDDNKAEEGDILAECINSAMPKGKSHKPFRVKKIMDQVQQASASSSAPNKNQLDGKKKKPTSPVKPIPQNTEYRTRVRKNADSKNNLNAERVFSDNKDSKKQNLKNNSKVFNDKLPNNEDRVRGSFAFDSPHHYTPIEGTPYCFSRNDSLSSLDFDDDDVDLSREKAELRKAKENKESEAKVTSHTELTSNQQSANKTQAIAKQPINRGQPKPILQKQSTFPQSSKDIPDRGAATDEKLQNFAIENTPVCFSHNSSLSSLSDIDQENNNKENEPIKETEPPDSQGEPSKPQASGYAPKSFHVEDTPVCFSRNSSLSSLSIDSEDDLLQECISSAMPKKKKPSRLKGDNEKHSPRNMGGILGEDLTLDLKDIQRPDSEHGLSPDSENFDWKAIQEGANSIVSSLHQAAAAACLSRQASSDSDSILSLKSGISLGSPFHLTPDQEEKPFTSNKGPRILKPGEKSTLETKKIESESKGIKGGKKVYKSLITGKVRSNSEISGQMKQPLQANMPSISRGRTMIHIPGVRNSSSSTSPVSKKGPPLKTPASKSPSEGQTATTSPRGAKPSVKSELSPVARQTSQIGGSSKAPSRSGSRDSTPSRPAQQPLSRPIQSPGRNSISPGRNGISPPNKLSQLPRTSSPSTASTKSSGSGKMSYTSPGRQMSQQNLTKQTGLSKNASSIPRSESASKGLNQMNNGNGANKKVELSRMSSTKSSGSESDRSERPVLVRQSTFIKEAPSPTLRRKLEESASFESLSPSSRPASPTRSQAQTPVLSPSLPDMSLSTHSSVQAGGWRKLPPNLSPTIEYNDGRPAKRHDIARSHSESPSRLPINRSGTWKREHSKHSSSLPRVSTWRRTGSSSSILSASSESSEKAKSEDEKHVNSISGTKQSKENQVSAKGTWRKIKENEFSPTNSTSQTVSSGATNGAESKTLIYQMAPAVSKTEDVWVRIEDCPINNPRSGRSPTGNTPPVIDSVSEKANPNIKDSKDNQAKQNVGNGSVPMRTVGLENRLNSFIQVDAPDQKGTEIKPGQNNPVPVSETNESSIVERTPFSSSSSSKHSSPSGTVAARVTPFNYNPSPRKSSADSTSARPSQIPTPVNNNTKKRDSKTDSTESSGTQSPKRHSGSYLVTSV
T2 sequence (Q14160 728-815): as the sequence (Q14160 728-815) above

Molecule: Scribble PDZ1 (from UniProt Q14160)
Kd [1]: 6 µM

stoichiometry N [2]: 0.93 ± 0.04
stoichiometry N [3]: 0.95 ± 0.07
B1: C-terminally derived 8-mer human TMIGD1 peptide (peptide)
peptide: DPHSETAL
notes: also called TMIGD1/WT; TMIGD1 PBM peptide; source: synthetic peptide, obtained from Genscript

Kd [4]: 9.12 µM
Kd [5]: 18.2 µM
B2: C-terminally derived 8-mer human TMIGD1 peptide (DPHSETAL) (peptide)
peptide: DPHSETAL
notes: TMIGD1, human, the eight C-terminal residues with the PBM (SETAL), free C-terminal carboxyl; also called TMIGD1/WT; TMIGD1 PBM peptide; source: synthetic peptide (Genscript)
